From US20090062180A1 (TEL AVIV UNIVERSITY FUTURE TECHNOLOGY DEVELOPMENT L P, published 2009)
Blank lines part the entries; values can stand above or below the binder they belong to. Square brackets hold non-standard residues; d marks the D form. Ends that are not written are not given here. * marks the point of attachment. Myristoyl = CCCCCCCCCCCCCC(=O)*; pS = N[C@@H](COP(=O)(O)O)C(=O)O

Tests used:
[1] = target: T1, Purified recombinant rabbit GSK-3β (glycogen synthase kinase-3β) (rabbit, UniProt A0A5F9DUX8 1-420); test: cell-based or functional assay
[2] = target: endogenous GSK-3 (in HEK 293 cells); test: cell-based or functional assay
[3] = target: T1, Purified recombinant rabbit GSK-3β …; test: cell-based or functional assay; remark: listed apart in the source
[4] = target: mitogen activated protein kinase (MAPK); test: cell-based or functional assay
[5] = target: catalytic subunit of cAMP dependent protein kinase (PKA); test: cell-based or functional assay
[6] = target: casein kinase-2 (CK-2); test: cell-based or functional assay
[7] = target: Cyclic dependent protein kinase, cdc2; test: cell-based or functional assay
[8] = target: Protein kinase C-δ; test: cell-based or functional assay
[9] = target: Protein kinase B (PKB); test: cell-based or functional assay
[10] = target: T1, Purified recombinant rabbit GSK-3β …; test: Lineweaver-Burk analysis of the in vitro GSK-3 kinase assay; competitive against PGS-1 peptide substrate
Procedure: The results represent phosphate incorporation into PGS-1 peptide substrate (CPM). […] Each point is a mean of duplicate samples.
In vitro inhibition assays: Purified recombinant rabbit GSK-30 (Eldar-Finkelman et al., 1996) was incubated with peptide substrate PGS-1 ([…](p)EDEEE) (SEQ ID NO:15) and with a peptide inhibitor at indicated concentrations. The reaction mixture included Tris 50 mM (pH=7.3), 10 mM MgAc, ³²P[γ-ATP] (100 μM), 0.01% β-mercaptoethanol, and was incubated for 10 minutes at 30° C. Reactions were spotted on phosphocellulose paper (p81), washed with 100 mM phosphoric acid, and counted for radioactivity (as described in Eldar-Finkelman et al., 1996).

- IC50 (comparative GSK-3β inhibition assay, PGS-1 substrate; FIG. 4) [1]: 40 µM
- IC50 (in vitro GSK-3 kinase inhibition, PGS-1 substrate; FIGS. 3a-b) [1]: 40 µM
- glycogen synthase activity in HEK 293 cells [2]: 2.5 fold
B1: L803-mts (N-Myristol-GKEAPPAPPQS(p)P) (peptide)
peptide: Myristoyl-GKEAPPAPPQ[pS]P

- Inhibitor functionality (IC50) [3]: > 800 µM
B2: Peptide No. 12 PAPPQS(p)P (peptide)
peptide: PAPPQ[pS]P

- IC50 (in vitro GSK-3 kinase inhibition, PGS-1 substrate) [1]: 150 µM
- % Maximal activity (kinase activity with 200 µM L803) [4]: 106%
- % Maximal activity (kinase activity with 200 µM L803) [5]: 86%
- % Maximal activity (kinase activity with 200 µM L803) [6]: 117%
- % Maximal activity (kinase activity with 200 µM L803) [7]: 90%
- % Maximal activity (kinase activity with 200 µM L803) [8]: 111%
- % Maximal activity (kinase activity with 200 µM L803) [9]: 91%
- Ki [10]: 70 µM
B3: Peptide No. 9 KEAPPAPPQS(p)P (L803) (peptide)
peptide: KEAPPAPPQ[pS]P
notes: also called peptide 9
